Reference: patent publication US20180251503A1 (Memorial Sloan Kettering, published 2018)

Molecular target: CD3 on T cells (Jurkat cells; purified human T cells) (human, UniProt P07766 23-207; P09693 23-182; P04234 22-171)
Experiment: cell-based or functional assay

| Binder | IFN-γ release from human T cells (no tumor cells), ELISA [pg/mL] | IL-2 release from human T cells (no tumor cells), ELISA [pg/mL] | IL-10 release from human T cells (no tumor cells), ELISA [pg/mL] | TNF-α release from human T cells (no tumor cells), ELISA [pg/mL] |
| --- | --- | --- | --- | --- |
| GD2xCD3-HDD bispecific fusion protein (scFv5F11-scFvhOKT3 with HNF-1alpha dimerization component, Y-BT-HDD) (bispecific antibody) scFv: QVQLQQSGPELVKPGASVKISCKTSGYKFTEYTMHWVKQSHGKCLEWIGGINPNNGGTNYNQKFKGKATLTVDKSSSTAYMELRSLTSEDSAVYYCARDTTVPYAYWGQGTTVTVSSGGGGSGGGGSGGGGSDIELTQSPAIMSASPGEKVTMTCSASSSISYMHWYQQKPGTSPKRWIYDTSKLASGVPARFSGSGSGTSYSLTISSMEAEDAATYYCHQRSSYPLTFGCGTKLEIKRASTKGPGGGGSGGGGSGGGGSQVQLVQSGGGVVQPGRSLRLSCKASGYTFTRYTMHWVRQAPGKGLEWIGYINPSRGYTNYNQKFKDRFTISRDNSKNTAFLQMDSLRPEDTGVYFCARYYDDHYCLDYWGQGTPVTVSSGGGGSGGGGSGGGGSDIQMTQSPSSLSASVGDRVTITCSASSSVSYMNWYQQTPGKAPKRWIYDTSKLASGVPSRFSGSGSGTDYTFTISSLQPEDIATYYCQQWSSNPFTFGQGTKLQITRTPLGDTTHTSGMVSKLSQLQTELLAALLESGLSKEALIQALGEGSGGAPHHHHHH | 2.1 | 2.2 | 2.1 | 7.6 |
| GD2xCD3 bispecific fusion protein (scFv5F11-(G4S)3-scFvhOKT3, Y-BT, without dimerization component) (bispecific antibody) scFv: QVQLQQSGPELVKPGASVKISCKTSGYKFTEYTMHWVKQSHGKCLEWIGGINPNNGGTNYNQKFKGKATLTVDKSSSTAYMELRSLTSEDSAVYYCARDTTVPYAYWGQGTTVTVSSGGGGSGGGGSGGGGSDIELTQSPAIMSASPGEKVTMTCSASSSISYMHWYQQKPGTSPKRWIYDTSKLASGVPARFSGSGSGTSYSLTISSMEAEDAATYYCHQRSSYPLTFGCGTKLEIKRASTKGPGGGGSGGGGSGGGGSQVQLVQSGGGVVQPGRSLRLSCKASGYTFTRYTMHWVRQAPGKGLEWIGYINPSRGYTNYNQKFKDRFTISRDNSKNTAFLQMDSLRPEDTGVYFCARYYDDHYCLDYWGQGTPVTVSSGGGGSGGGGSGGGGSDIQMTQSPSSLSASVGDRVTITCSASSSVSYMNWYQQTPGKAPKRWIYDTSKLASGVPSRFSGSGSGTDYTFTISSLQPEDIATYYCQQWSSNPFTFGQGTKLQITRHHHHHH | 1.7 | 2 | 3.6 | 7.9 |
| Humanized OKT3 IgG (parental humanized OKT3 antibody) (antibody, V domains shown) VH: QVQLVQSGGGVVQPGRSLRLSCKASGYTFTRYTMHWVRQAPGKGLEWIGYINPSRGYTNYNQKFKDRFTISRDNSKNTAFLQMDSLRPEDTGVYFCARYYDDHYCLDYWGQGTPVTVSS VL: DIQMTQSPSSLSASVGDRVTITCSASSSVSYMNWYQQTPGKAPKRWIYDTSKLASGVPSRFSGSGSGTDYTFTISSLQPEDIATYYCQQWSSNPFTFGQGTKLQITR | 228 | 36.5 | 29.8 | 86.7 |
